Source: patent US20120316071A1 (published 2012)
Blank lines part the entries; values can stand above or below the binder they belong to.

Columns and labels:
[1] = target: T1, rHuman CD44/Fc Chimera, CF (R&D Systems Cat#3660-CD) (human, UniProt P16070 21-220); assay: ECL Multispot (MSD) assay, antigen spotted on plate, 10 nM Fab; blank spot of this row 472
T1 construct: Bought reagent; Fc part of the bought chimera not given

[2] = target: T2, rHuman EGF R/Fc Chimera, CF (R&D Systems Cat#344-ER) (human, UniProt P00533 25-645); assay: as above
T2 construct: Bought reagent; also called epidermal growth factor receptor; Fc part of the bought chimera not given

[3] = target: T3, rHuman ErbB2/Fc Chimera, CF (R&D Systems Cat#1129-ER) (human, UniProt P04626 23-652); assay: as above
T3 construct: Bought reagent; also called human epidermal growth factor 2 receptor; Fc part of the bought chimera not given

[4] = target: T4, rHuman Notch-1/Fc Chimera, CF (R&D Systems Cat#3647-TK) (human, UniProt P46531 19-526); assay: as above
T4 construct: Bought reagent; Fc part of the bought chimera not given

[5] = target: T5, rHuman Erythropoietin R/Fc Chimera, CF (R&D Systems Cat#963-ER) (human, UniProt P19235 25-250); assay: as above
T5 construct: Bought reagent; also called EPO R; EPO R/Fc; Fc part of the bought chimera not given
T5 sequence (looked up): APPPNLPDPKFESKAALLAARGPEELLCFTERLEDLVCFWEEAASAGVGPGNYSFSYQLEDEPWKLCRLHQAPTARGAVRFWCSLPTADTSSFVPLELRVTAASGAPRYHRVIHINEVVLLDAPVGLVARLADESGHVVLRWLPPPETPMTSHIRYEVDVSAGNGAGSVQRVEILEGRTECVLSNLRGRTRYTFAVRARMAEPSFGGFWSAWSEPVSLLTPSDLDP

[6] = target: T6, rHuman P-Cadherin/Fc Chimera, CF (R&D Systems Cat#861-PC) (human, UniProt P22223 108-654); assay: as above
T6 construct: Bought reagent; Fc part of the bought chimera not given

[7] = target: T7, rHuman HGF R/c-MET/Fc Chimera, CF (R&D Systems Cat#358-MT/CF) (human, UniProt P08581 25-932); assay: as above
T7 construct: Bought reagent; also called HGF R/Fc; hepatocyte growth factor receptor; Fc part of the bought chimera not given

[8] = target: T8, rHuman IGF-1 sR, CF (R&D Systems Cat#391-GR) (human, UniProt P08069 31-932); assay: as above
T8 construct: Bought soluble receptor; The column head prints only 'IGF-1'; also called insulin-like growth factor-1 soluble receptor

[9] = target: T9, rHuman EGF R/Fc Chimera, CF (R&D Systems Cat#344-ER) (human, UniProt P00533 25-645); assay: MSD multispot ECL, antigen spotted on plate; Fab 0.51 uM; blank spot 1096
T9 construct: Bought recombinant protein; also called epidermal growth factor receptor; Fc part of the bought chimera not given

[10] = target: T10, rHuman IGF-1 sR, CF (R&D Systems Cat#391-GR) (human, UniProt P08069 31-932); assay: as above
T10 construct: Bought recombinant soluble receptor; also called insulin-like growth factor-1 soluble receptor

[11] = target: T11, rHuman ErbB2/Fc Chimera, CF (R&D Systems Cat#1129-ER) (human, UniProt P04626 23-652); assay: as above
T11 construct: Bought recombinant protein; also called human epidermal growth factor 2 receptor; Fc part of the bought chimera not given

[12] = target: T12, rHuman Notch-1/Fc Chimera, CF (R&D Systems Cat#3647-TK) (human, UniProt P46531 19-526); assay: MSD Multispot ECL, antigen spotted on plate, Fab 130 nM; blank spot 1153
T12 construct: Bought reagent; Fc part of the bought chimera not given

[13] = target: T13, rHuman Erythropoietin R/Fc Chimera, CF (R&D Systems Cat#963-ER) (human, UniProt P19235 25-250); assay: as above
T13 construct: Bought reagent; also called EPO R/Fc; EPO R; Fc part of the bought chimera not given
T13 sequence (looked up): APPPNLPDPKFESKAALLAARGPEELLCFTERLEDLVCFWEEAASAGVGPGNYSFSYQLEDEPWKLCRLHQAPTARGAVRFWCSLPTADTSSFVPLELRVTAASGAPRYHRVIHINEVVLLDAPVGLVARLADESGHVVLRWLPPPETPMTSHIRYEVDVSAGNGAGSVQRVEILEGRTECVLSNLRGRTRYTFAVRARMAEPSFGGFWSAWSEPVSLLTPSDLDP

[14] = target: T14, rHuman IGF-1 sR, (IGF-1 sR), CF (R&D Systems Cat#391-GR) (human, UniProt P08069 31-932); assay: as above
T14 construct: Bought soluble receptor; also called insulin-like growth factor-1 soluble receptor

[15] = target: T15, Recombinant Human DLL4 (R&D Systems Cat#1506-D4/CF) (human, UniProt Q9NR61 27-529); assay: as above
T15 construct: Bought recombinant protein; also called rHuman DLL4; delta-like protein 4

[16] = target: T16, rHuman CD44/Fc Chimera, CF (R&D Systems Cat#3660-CD) (human, UniProt P16070 21-220); assay: as above
T16 construct: Bought reagent; Fc part of the bought chimera not given

[17] = target: T17, rHuman EGF R/Fc Chimera, CF (R&D Systems Cat#344-ER) (human, UniProt P00533 25-645); assay: as above
T17 construct: Bought reagent; also called epidermal growth factor receptor; Fc part of the bought chimera not given

[18] = target: T18, rHuman HGF R/c-MET/Fc Chimera, CF (R&D Systems Cat#358-MT/CF) (human, UniProt P08581 25-932); assay: as above
T18 construct: Bought reagent; also called HGF R/Fc; hepatocyte growth factor receptor; Fc part of the bought chimera not given

ECL signal [1]: 400
ECL signal [2]: 428
ECL signal [3]: 391
ECL signal [4]: 299
ECL signal [5]: 480
ECL signal [6]: 433
ECL signal [7]: 426
ECL signal [8]: 434
B1: Fab VH1-46_IGHD6-6*01_IGHJ1*01 S102A/S103P/S104F (APF) & L6_IGKJ1*01 (Fab, V domains shown)
VH: QVQLVQSGAEVKKPGASVKVSCKASGYTFTSYYMHWVRQAPGQGLEWMGIINPSGGSTSYAQKFQGRVTMTRDTSTSTVYMELSSLRSEDTAVYYCAREEYAPFSAEYFQHWGQGTLVTVSS
VL: not shown
notes: Tested as a Fab made in E. coli; also called H:APF & L:wt; APF triple mutant

ECL signal [9]: 2360
ECL signal [10]: 2240
ECL signal [11]: 1530
B2: Fab VH4-34_IGHD7-27*01_IGHJ4*01 & L5_IGKJ1*01 (Fab, V domains shown)
VH: QVQLQQWGAGLLKPSETLSLTCAVYGGSFSGYYWSWIRQPPGKGLEWIGEINHSGSTNYNPSLKSRVTISVDTSKNQFSLKLSSVTAADTAVYYCARANWGDYFDYWGQGTLVTVSS
VL: DIQMTQSPSSVSASVGDRVTITCRASQGISSWLAWYQQKPGKAPKLLIYAASSLQSGVPSRFSGSGSGTDFTLTISSLQPEDFATYYCQQANSFPPWTFGQGTKVEIKR
notes: Germline library Fab expressed in E. coli; VH was cloned into Plasmid A, which adds CH1 with His6 and Flag tags

ECL signal [12]: 1760
ECL signal [13]: 2150
ECL signal [14]: 1970
ECL signal [15]: 7740
ECL signal [16]: 1750
ECL signal [17]: 1750
ECL signal [18]: 1880
B3: Fab VH1-8_IGHD2-2*01_IGHJ6*01 & L12_IGKJ1*01 (Fab, V domains shown)
VH: QVQLVQSGAEVKKPGASVKVSCKASGYTFTSYDINWVRQATGQGLEWMGWMNPNSGNTGYAQKFQGRVTMTRNTSISTAYMELSSLRSEDTAVYYCARGGYCSSTSCYADYYYYYGMDVWGQGTTVTVSS
VL: not shown
